The values below come from the Human Domainome abundance scans (Beltran et al. 2025).

± gives the uncertainty stated by the source.

B1: Chromodomain-helicase-DNA-binding protein 4, residues 623 to 675; numbered along this chain, Q14839 (parent)
chain: MIHRILNHSVDKKGHVHYLIKWRDLPYDQASWESEDVEIQDYDLFKQSYWNHR
B2: LIM and senescent cell antigen-like-containing domain protein 2, residues 13 to 71; numbered along this chain, Q7Z4I7 (parent)
chain: AVCQRCQARFSPAERIVNSNGELYHEHCFVCAQCFRPFPEGLFYEFEGRKYCEHDFQML

The first series covers variants of B1. In words: abundance fitness (aPCA) (normalised: wild type 0, dead -1); higher = more abundant; growth selection in yeast, the domain comes from the species named. The conditions noted are these: Homo sapiens.
R4C: the abundance fitness is -0.08 ± 0.11.

R4A: the abundance fitness was -0.535 ± 0.15. Still for that read-out and setting: in the case of I2E it was -0.54 ± 0.3; in that of I2K, -0.82 ± 0.16. As to I2C, the abundance fitness is -0.662 ± 0.11. On the same count and under the same terms, as for I2V, the figure is -0.589 ± 0.1; as for I2W, -0.856 ± 0.24; as for I2T, -0.686 ± 0.099. For the variant I2G, the abundance fitness was -0.802 ± 0.12. Turning to I2R, the abundance fitness is -0.734 ± 0.11. Same read-out and setting: as for I2H, the figure is -0.673 ± 0.11; as for I2M, -0.761 ± 0.13; as for I2Y, -0.882 ± 0.16. As for I2F, the abundance fitness is -0.945 ± 0.13. The same measure, in the same setting: in the case of I2Q it was -0.931 ± 0.17; in that of I2S, -0.708 ± 0.09. Still for that read-out and setting: as for I2N, the figure is -0.751 ± 0.11. On the same count and under the same terms, as for I2A, the figure is -0.978 ± 0.15; as for I2L, -0.879 ± 0.096; as for M1K, 0.112 ± 0.15.

M1L: the abundance fitness is -0.324 ± 0.14. Turning to M1N, the abundance fitness came to 0.277 ± 0.17. The same measure, in the same setting: as for M1C, the figure is -0.25 ± 0.24; as for M1V, -0.015 ± 0.17.

For M1T, the abundance fitness was -0.117 ± 0.12.

As for M1Q, the abundance fitness is -0.689 ± 0.48.

In the case of M1D, the abundance fitness was -0.452 ± 0.3. Same read-out and setting: in the case of M1G it was -0.046 ± 0.25; in that of M1Y, 0.226 ± 0.16. The same measure, in the same setting: in the case of M1S it was -0.23 ± 0.16; in that of M1H, -0.462 ± 0.31.

For M1I, the abundance fitness came to 0.148 ± 0.092. Take M1R: the abundance fitness is -0.265 ± 0.22. On the same count and under the same terms, as for M1F, the figure is -0.004 ± 0.19; as for H3R, -0.376 ± 0.082; as for H3M, -0.416 ± 0.14.

For the variant H3N, the abundance fitness was -0.266 ± 0.13.

In the case of H3Y, the abundance fitness is -0.16 ± 0.13. As for H3S, the abundance fitness was -0.047 ± 0.09. On the same count and under the same terms, as for H3I, the figure is -1.05 ± 0.28; as for H3E, 0.437 ± 0.14; as for H3T, -0.282 ± 0.12.

Regarding H3K, the abundance fitness was -0.56 ± 0.16.

Consider H3C, for which the abundance fitness is -0.094 ± 0.13. Still for that read-out and setting: in the case of H3P it was -0.741 ± 0.16; in that of H3W, -0.245 ± 0.12. With H3V, the abundance fitness was -0.629 ± 0.12. Take H3Q: the abundance fitness amounted to 0.045 ± 0.12.

In the case of H3A, the abundance fitness was -0.086 ± 0.096.

For the variant H3F, the abundance fitness is -0.392 ± 0.19. On to H3D, for which the abundance fitness was determined as 0.235 ± 0.15.

Another series covers variants of B2. The description is as above. Conditions: Homo sapiens.
As to AVCQRCQARFSPAERIVNSNGELYHEHCFVCAQCFRPFPEGLFQEFEGRKYCEHDFQML [Y44Q], the abundance fitness is -0.019 ± 0.093.

As to AVCQRCQARFSPAERIVNSNGELYHEHCFVCAQCFRPPPEGLFYEFEGRKYCEHDFQML [F38P], the abundance fitness is -0.101 ± 0.078. For the variant AVCQRCQARFSPAERIVNSNGELYHEHCFVCAQCFRPIPEGLFYEFEGRKYCEHDFQML [F38I], the abundance fitness was -0.55 ± 0.12. On to AVCQRCQARFSPAERIVNSNGELYHYHCFVCAQCFRPFPEGLFYEFEGRKYCEHDFQML [E26Y], for which the abundance fitness is -0.115 ± 0.18. On the same count and under the same terms, as for AVCQRCQARFSPAERIVNSNGELYHVHCFVCAQCFRPFPEGLFYEFEGRKYCEHDFQML [E26V], the figure is 0.022 ± 0.068; as for AVCQRCQARFSPLERIVNSNGELYHEHCFVCAQCFRPFPEGLFYEFEGRKYCEHDFQML [A13L], -0.039 ± 0.055. On the same count and under the same terms, in the case of AVCQRCQARFSPVERIVNSNGELYHEHCFVCAQCFRPFPEGLFYEFEGRKYCEHDFQML [A13V] it was -0.327 ± 0.081; in that of AVCQRCQAHFSPAERIVNSNGELYHEHCFVCAQCFRPFPEGLFYEFEGRKYCEHDFQML [R9H], -0.047 ± 0.096; in that of AVCQRCQADFSPAERIVNSNGELYHEHCFVCAQCFRPFPEGLFYEFEGRKYCEHDFQML [R9D], -0.019 ± 0.11. On the same count and under the same terms, in the case of AVCQRCQAYFSPAERIVNSNGELYHEHCFVCAQCFRPFPEGLFYEFEGRKYCEHDFQML [R9Y] it was -0.292 ± 0.1; in that of AVCQRCQARFSPAERIVNSNGELYHEHCFVCAQMFRPFPEGLFYEFEGRKYCEHDFQML [C34M], -0.474 ± 0.14; in that of AVCQRCQARFSPAERIVNSNGELYHEHCFVCAQVFRPFPEGLFYEFEGRKYCEHDFQML [C34V], -1.04 ± 0.17.
